B1: HDV Ribozyme (parent)
chain: GGCCGGCAUGGUCCCAGCCUCCUCGCUGGCGCCGGCUGGGCAACAUUCCGAGGGGACCGUCCCCUCGGUAAUGGCGAAUGGGACCCA

The record followed here is the RNAGym collection of RNA variant scans (doi:10.7554/elife.80360).

Variants of B1 are the subject of the data set. Put plainly: self-cleavage, relative activity (ratio to wild type); higher = more cleavage; co-transcriptional.
Consider GGCCGGCAGGGUCCCAGCCUCCUCGCUGGCGCCGGCUGGGCAACAUUCCGAGGGGACCGUCCCCUCGGUAAUGGUGAAUGGGACCCA [U9G C75U], for which the self-cleavage was 0.222.

For the variant GGCCGGCAGGGUUCCAGCCUCCUCGCUGGCGCCGGCUGGGCAACAUUCCGAGGGGACCGUCCCCUCGGUAAUGGCGAAUGGGACCCA [U9G C13U], the self-cleavage turned out to be 1.07.

With GGCCGGCAGGGUCCCAGCCUCCUCGCUGGCCCCGGCUGGGCAACAUUCCGAGGGGACCGUCCCCUCGGUAAUGGCGAAUGGGACCCA [U9G G31C], the self-cleavage came out at 0.378.

For the variant GGCCGGCAGGGUCCCAGCCUCCUCGCUGGCGCCCGCUGGGCAACAUUCCGAGGGGACCGUCCCCUCGGUAAUGGCGAAUGGGACCCA [U9G G34C], the self-cleavage turned out to be 0.175.

For GGCCGGCAGGGUCCCAGCCUGCUCGCUGGCGCCGGCUGGGCAACAUUCCGAGGGGACCGUCCCCUCGGUAAUGGCGAAUGGGACCCA [U9G C21G], the self-cleavage came to 0.

As to GGCCGGCAGGUUCCCAGCCUCCUCGCUGGCGCCGGCUGGGCAACAUUCCGAGGGGACCGUCCCCUCGGUAAUGGCGAAUGGGACCCA [U9G G11U], the self-cleavage was 0.532.

In the case of GGCCGGCAGGCUCCCAGCCUCCUCGCUGGCGCCGGCUGGGCAACAUUCCGAGGGGACCGUCCCCUCGGUAAUGGCGAAUGGGACCCA [U9G G11C], the self-cleavage amounted to 0.594.

As for GGCCGGCAGGGUCCCAGCCUCCUCCCUGGCGCCGGCUGGGCAACAUUCCGAGGGGACCGUCCCCUCGGUAAUGGCGAAUGGGACCCA [U9G G25C], the self-cleavage was found to be 0.

On to GGCCGGCAGGGUCCCAGCCUCCUCGCUGGCGCCGGCUGGGCAACAUUCCGAGGGGACCGUCCCGUCGGUAAUGGCGAAUGGGACCCA [U9G C64G], for which the self-cleavage came out at 0.831.

Take GGCCGGCAGGGUCCCAGCCUCCUCGCUGGCGCCGGCUGGGCAACAUUCCGAGGGGACCGUCGCCUCGGUAAUGGCGAAUGGGACCCA [U9G C62G]: the self-cleavage came out at 0.462.

For the variant GGCCGGCAGGGUCCCAGCCUCCUCGCUGGCGCCGGCUGGGCAACAUUCCGAGGGGACCGUCCCCUCGGUAAUGGCGACUGGGACCCA [U9G A78C], the self-cleavage amounted to 0.208.

On to GGCCGGCAGGGUCCCAGCCUCCUCGCUGGCGCCGGCUGGGCAACAUUCCGAGGGGACCGUCCCCUCGGUAAUGGCGAGUGGGACCCA [U9G A78G], for which the self-cleavage was 0.166.

As for GGCCGGCAGGGUCCCAGCCUCCUCGCUGGCGCCGGCUGGGCAACAUUCCCAGGGGACCGUCCCCUCGGUAAUGGCGAAUGGGACCCA [U9G G50C], the self-cleavage is 1.01.

With GGCCGGCAGGGUCCCAGCCUCCUCGCUGGCGCCGGCUGGGCAACAUUCCGAGGGGACCGUCCCCUCGGUAAUGGCGAAUGGGGCCCA [U9G A83G], the self-cleavage was 0.525.

Regarding GGCCGGCAGGGUCCCAGCCUCCUCGCUGGCGCCGGCUGGGCAACAUUCCGAGGGGACCGUCCCCUCGGUAAUGGCGAAUGGGCCCCA [U9G A83C], the self-cleavage worked out at 0.554.

As to GGCCGGCAGGGUCCCAGCCUCCUCGCUGGCGCCGGCUGGGCAACAUUCCGAGGGGACCGUCCCCUCGGUAAUGGCGAAUGGGUCCCA [U9G A83U], the self-cleavage came out at 0.453.

Turning to GGCCGGCAGGGUCCCAGCCUCCUCGCUGGCGCCGGCUGGGCAAUAUUCCGAGGGGACCGUCCCCUCGGUAAUGGCGAAUGGGACCCA [U9G C44U], the self-cleavage stood at 0.443.

For the variant GGCCGGCAGGGUCCCAGCCUCCUCGCUGGCGCCGGCUGGGCAACAUUCCGAGGGGACCGUCCCCUCGGUAAUGGCGAAUGGGAGCCA [U9G C84G], the self-cleavage came to 0.222.

As for GGCCGGCAGGGUCCCAGCCUCCUCGCUGGCGCCGGCUGGGCAACAUUCAGAGGGGACCGUCCCCUCGGUAAUGGCGAAUGGGACCCA [U9G C49A], the self-cleavage worked out at 1.11.

For the variant GGCCGGCAGGGUCCCAGCCUCCUCGCUGGCGCCGGCUGGGCAACAUUCUGAGGGGACCGUCCCCUCGGUAAUGGCGAAUGGGACCCA [U9G C49U], the self-cleavage stood at 0.776.

In the case of GGCCGGCAGGGUCCCAGCCUCCUCGCUGGCGCCGACUGGGCAACAUUCCGAGGGGACCGUCCCCUCGGUAAUGGCGAAUGGGACCCA [U9G G35A], the self-cleavage worked out at 0.782.

Regarding GGCCGGCAGGGUCCCAGCCUCCUCGCUGGCGCCGUCUGGGCAACAUUCCGAGGGGACCGUCCCCUCGGUAAUGGCGAAUGGGACCCA [U9G G35U], the self-cleavage stood at 0.653.

For the variant GGCCGGCAGGGUCCCAGUCUCCUCGCUGGCGCCGGCUGGGCAACAUUCCGAGGGGACCGUCCCCUCGGUAAUGGCGAAUGGGACCCA [U9G C18U], the self-cleavage is 0.504.

Take GGCCGGCAGGGUCCCAGGCUCCUCGCUGGCGCCGGCUGGGCAACAUUCCGAGGGGACCGUCCCCUCGGUAAUGGCGAAUGGGACCCA [U9G C18G]: the self-cleavage amounted to 0.

Turning to GGCCGGCAGGGUCCCAGACUCCUCGCUGGCGCCGGCUGGGCAACAUUCCGAGGGGACCGUCCCCUCGGUAAUGGCGAAUGGGACCCA [U9G C18A], the self-cleavage stood at 0.0923.

On to GGCCGGCAGGGUCCCAGCCUCCUCGCUGGCGCCGGCUGUGCAACAUUCCGAGGGGACCGUCCCCUCGGUAAUGGCGAAUGGGACCCA [U9G G39U], for which the self-cleavage was determined as 0.807.

As for GGCCGGCAGGGUCCCAGCCUCCUCGCUGGCGCCGGCUGCGCAACAUUCCGAGGGGACCGUCCCCUCGGUAAUGGCGAAUGGGACCCA [U9G G39C], the self-cleavage came to 0.196.

Turning to GGCCGGCAGGGUCCAAGCCUCCUCGCUGGCGCCGGCUGGGCAACAUUCCGAGGGGACCGUCCCCUCGGUAAUGGCGAAUGGGACCCA [U9G C15A], the self-cleavage stood at 1.21.

On to GGCCGGCAGGGUCCUAGCCUCCUCGCUGGCGCCGGCUGGGCAACAUUCCGAGGGGACCGUCCCCUCGGUAAUGGCGAAUGGGACCCA [U9G C15U], for which the self-cleavage was 0.962.

As to GGCCGGCAGGGUCCCAGCCUCCUCGCUGGCGCCGGCUGGGCAACAUUCCGAGGGGUCCGUCCCCUCGGUAAUGGCGAAUGGGACCCA [U9G A56U], the self-cleavage was found to be 1.01.

In the case of GGCCGGCAGGGUCCCAGCCUCCUCGCUGGCGCCGGCUGGGCAACAUUCCGAGGGGACCGUCCCCUCGGUAAUGGCGAAUGGGACCAA [U9G C86A], the self-cleavage was 0.959.

In the case of GGCCGGCAGUGUCCCAGCCUCCUCGCUGGCGCCGGCUGGGCAACAUUCCGAGGGGACCGUCCCCUCGGUAAUGGCGAAUGGGACCCA [U9G G10U], the self-cleavage came out at 0.987.
